According to article doi:10.1101/2024.05.29.596450v1:

Substrate: O=C(Cc1cccs1)N[C@@H]1C(=O)N2C(C(=O)O)=C(/C=C/c3ccc([N+](=O)[O-])cc3[N+](=O)[O-])CS[C@H]12
Assay: purified protein
Settings: nitrocefin 50-200 μM, phosphate buffer pH 7.4

B1: PBP2a (Staphylococcus aureus) (protein)
chain: YASKDKEINNTIDAIEDKNFKQVYKDSSYISKSDNGEVEMTERPIKIYNSLGVKDINIQDRKIKKVSKNKKRVDAQYKIKTNYGNIDRNVQFNFVKEDGMWKLDWDHSVIIPGMQKDQSIHIENLKSERGKILDRNNVELANTGTAYEIGIVPKNVSKKDYKAIAKELSISEDYIKQQMDQKWVQDDTFVPLKTVKKMDEYLSDFAKKFHLTTNETESRNYPLEKATSHLLGYVGPINSEELKQKEYKGYKDDAVIGKKGLEKLYDKKLQHEDGYRVTIVDDNSNTIAHTLIEKKKKDGKDIQLTIDAKVQKSIYNNMKNDYGSGTAIHPQTGELLALVSTPSYDVYPFMYGMSNEEYNKLTEDKKEPLLNKFQITTSPGSTQKILTAMIGLNNKTLDDKTSYKIDGKGWQKDKSWGGYNVTRYEVVNGNIDLKQAIESSDNIFFARVALELGSKKFEKGMKKLGVGEDIPSDYPFYNAQISNKNLDNEILLADSGYGQGEILINPVQILSIYSALENNGNINAPHLLKDTKNKVWKKNIISKENINLLTDGMQQVVNKTHKEDIYRSYANLIGKSGTAELKMKQGETGRQIGWFISYDKDNPNMMMAINVKDVQDKGMASYNAKISGKVYDELYENGNKKYDIDE
  Km: 29.28 µM
  kcat: 259.1 s⁻¹
